# Results published in the supplement of paper PMC10724198.
# ± gives the standard deviation of the averaged measurements.
# Test system: Saccharomyces cerevisiae
# Assay: protein stability index of tFT-peptide fusion (C-terminal peptide) (PSI (0-1 scale)); higher = more stable (slower turnover)
# Conditions: genetic background: wild type; temperature: 30 C
# Protocol: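 Multiplexed protein stability (MPS) profiling in S. cerevisiae. Random 12-aa peptides (tFT-X12 library) are fused to the C-terminus of a sfGFP-mCherry tandem fluorescent timer, after mCherry and a GGGS linker. Cells are FACS-sorted into 8 mCherry/sfGFP bins and deep-sequenced. The protein stability index (PSI) is the read-weighted bin average, scaled from 0 (unstable) to 1 (stable). Only peptides with >10 reads are reported; cells were grown at 30 °C in SC-His with glucose.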
# 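Note: PSI is a weighted mean of sequencing reads over stability bins, variants kept only with over 10 reads, mCherry proximal and sfGFP distal, peptide attached via GGGS linker.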
row,Sequence,protein stability index
1,AADSKERPPRPP,0.625 ± 0.0092
2,AAGEGSAPTRDR,0.672 ± 0.028
3,AAGPILAFSVAC,0.638 ± 0.039
4,AAGSVFAEGYTG,0.686 ± 0.042
5,AAHSQNPPPPSS,0.697 ± 0.031
6,AAIARRNIFKAR,0.689 ± 0.039
7,AALSTYPLVTCS,0.547 ± 0.012
8,AARYSRSPRTCF,0.6507 ± 0.0059
9,AASVYAFLPGLY,0.651 ± 0.021
10,AATGPPHPPSPP,0.804 ± 0.037
11,AAVRPAHRICYS,0.733 ± 0.041
12,AAWGSGMCLCVF,0.559 ± 0.046
13,AAWSITFEVLSI,0.59 ± 0.026
14,ACARIGRDYVTP,0.687 ± 0.016
15,ACKWGVNKSTLG,0.703 ± 0.043
16,ACLLYSGFSTEL,0.654 ± 0.0066
17,ACLPRARLRFHV,0.669 ± 0.027
18,ACRSGTRFAGIW,0.703 ± 0.016
19,ACRTGSSLLHPI,0.706 ± 0.06
20,ACSLGQSVLVCR,0.611 ± 0.02
21,ACSSGGVGWGSV,0.66 ± 0.034
22,ACWGFFIAGVRV,0.598 ± 0.056
23,ADEGRGVGGVGG,0.699 ± 0.061
24,ADGGVVLKVMEG,0.636 ± 0.077
25,ADRSVGSAACSP,0.72 ± 0.15

row,Sequence,protein stability index
1,ADWGLLVNRSHH,0.725 ± 0.084
2,ADYSRHSCSSSP,0.681 ± 0.053
3,AEESPVDKRPKS,0.728 ± 0.036
4,AENHCIASRIGH,0.659 ± 0.019
5,AETPRGDTRLHE,0.699 ± 0.021
6,AFAWERPCEIRF,0.6984 ± 0.0063
7,AFCKTGSAGVGI,0.634 ± 0.046
8,AFGCGGVPGDFA,0.63 ± 0.015
9,AFLLPYTSLLLT,0.516 ± 0.026
10,AFLLSSIRPSLR,0.7486 ± 0.005
11,AFPAQSLRLRCE,0.688 ± 0.049
12,AFRSISERLGGS,0.784 ± 0.018
13,AFRVPGSCAFSP,0.641 ± 0.011
14,AFSTGSIILEPR,0.646 ± 0.016
15,AFYLYLSSTSRF,0.662 ± 0.0086
16,AGAGGGGAVVVG,0.637 ± 0.039
17,AGCRRGLGMETQ,0.648 ± 0.012
18,AGCVAVYGVFLG,0.619 ± 0.13
19,AGCVVGWGAWVL,0.7035 ± 0.0064
20,AGDTCRLRIHVD,0.728 ± 0.021
21,AGEGLIRMIVRP,0.694 ± 0.024
22,AGGARADKQGGG,0.636 ± 0.071
23,AGGGRGAEGCGG,0.783 ± 0.069
24,AGGGVKLWWGRE,0.657 ± 0.054
25,AGGPARWCLEVG,0.7 ± 0.015

row,Sequence,protein stability index
1,AGGRSVCGSALP,0.661 ± 0.016
2,AGGWLRGGLGVG,0.7 ± 0.053
3,AGIFGGGRGVSV,0.647 ± 0.039
4,AGIGWGDLASPG,0.681 ± 0.025
5,AGKVCGVGRLSI,0.65 ± 0.033
6,AGLEPGTAALVD,0.641 ± 0.094
7,AGLGLGRVNVMP,0.743 ± 0.03
8,AGLSGRGFLRGA,0.6923 ± 0.0062
9,AGMATWGILVSL,0.52 ± 0.008
10,AGPGGAPVRWCR,0.723 ± 0.037
11,AGPKYHLGIPAP,0.678 ± 0.014
12,AGPPSPPLHPVG,0.696 ± 0.026
13,AGREREVLFNLH,0.679 ± 0.067
14,AGRFAPAEARVF,0.622 ± 0.056
15,AGRVGVRGVVGG,0.748 ± 0.1
16,AGRVRERMRVYG,0.639 ± 0.01
17,AGSFGCREAVCP,0.658 ± 0.044
18,AGSSQWSLGQLG,0.6345 ± 0.002
19,AGVGGCVGLGCR,0.653 ± 0.042
20,AHPGHRPSHPPY,0.727 ± 0.08
21,AHPPLLPPLLPS,0.639 ± 0.015
22,AHPPSPPPTRRP,0.676 ± 0.0079
23,AHSAPGHPHDFP,0.664 ± 0.046
24,AIALASTNLMAG,0.713 ± 0.097
25,AIGDLQKAVPLM,0.718 ± 0.047

row,Sequence,protein stability index
1,AILHFTVSPRVY,0.561 ± 0.0097
2,AIRRNVYSCVYG,0.603 ± 0.032
3,AIYDSFRISYRT,0.675 ± 0.028
4,AIYKGVIVGKKS,0.646 ± 0.043
5,AKRFQTTWAGRM,0.61 ± 0.037
6,AKSGEVIGSWFG,0.67127 ± 0.00043
7,ALCHASSLHLQS,0.724 ± 0.059
8,ALGNFPLGASVS,0.676 ± 0.035
9,ALGRTPYSGCFL,0.631 ± 0.021
10,ALKLVGSVWFGG,0.676 ± 0.15
11,ALLAFMSSPRRL,0.7001 ± 0.0028
12,ALLPPRPPSPLP,0.692 ± 0.016
13,ALRLLRHTLSSS,0.703 ± 0.016
14,ALRPYDVQVKFR,0.622 ± 0.038
15,ALRVHVPPYVPA,0.6785 ± 0.0049
16,ALSPPSPTPASA,0.694 ± 0.049
17,ALSPSLWCYFPT,0.71 ± 0.029
18,ALSTALVIPLLY,0.58818 ± 0.00035
19,ALSVASVAVVPL,0.56 ± 0.015
20,ALVLLIPLSLLL,0.522 ± 0.11
21,ALVLYVSMSRGY,0.677 ± 0.054
22,ALVPESDLGLNF,0.714 ± 0.026
23,ALVSRGPCVFGW,0.662 ± 0.045
24,ALYLFHAPRTPP,0.637 ± 0.014
25,AMSLWFGFFHFV,0.555 ± 0.018

row,Sequence,protein stability index
1,ANAPQAEHASVL,0.699 ± 0.021
2,ANKNNIQRTISL,0.756 ± 0.038
3,ANRGYRYGASRV,0.649 ± 0.017
4,APDLPHSTNLPR,0.741 ± 0.024
5,APDPTIPYSPTP,0.717 ± 0.028
6,APGSPLDPLTMF,0.6535 ± 0.0041
7,APITPNPLYLNH,0.697 ± 0.055
8,APKLWLPYTCQS,0.705 ± 0.059
9,APLGLSFVSAVI,0.793 ± 0.087
10,APNPYHKPPSLR,0.701 ± 0.11
11,APPAPPLPAIPL,0.675 ± 0.038
12,APPARSSPPPRP,0.686 ± 0.039
13,APPHLVTYPLCP,0.66 ± 0.067
14,APPPAFLPPPPA,0.729 ± 0.048
15,APPPAPPLHPPS,0.739 ± 0.022
16,APPPAPSPPLAP,0.69 ± 0.027
17,APPPLPSLPPSP,0.701 ± 0.017
18,APPPPAPPPLRP,0.724 ± 0.05
19,APPPPARDLPPR,0.721 ± 0.017
20,APPPPPPDPPLP,0.685 ± 0.011
21,APPPRATLPRPP,0.673 ± 0.055
22,APPPRSPPPPPL,0.6796 ± 0.0067
23,APPSPPSPPGLP,0.672 ± 0.033
24,APPSSYSSPPPS,0.692 ± 0.017
25,APRPSLTPLSTP,0.653 ± 0.09

row,Sequence,protein stability index
1,APRRVPWLLGRV,0.578 ± 0.099
2,APRTPATRPNHP,0.723 ± 0.045
3,APSGFRRKDVDL,0.68 ± 0.034
4,APSGPFLFIMNA,0.663 ± 0.047
5,APSGVGANGWGR,0.654 ± 0.0085
6,APSPPSVPSPPP,0.675 ± 0.0088
7,APSRPFPAHPPP,0.602 ± 0.044
8,APSRTTERILLL,0.714 ± 0.029
9,APTPPPPPPPLP,0.752 ± 0.011
10,APTQANLRSSRS,0.73 ± 0.022
11,APTRVDTAGSCV,0.676 ± 0.051
12,APVEVYRHAEAS,0.67 ± 0.035
13,APVSLHVPPCSR,0.669 ± 0.026
14,AQLGQTCDRDGM,0.79 ± 0.17
15,AQPCISGLTCRY,0.729 ± 0.0096
16,AQPDAFAGVWGV,0.7177 ± 0.0028
17,AQTPNPEPLENN,0.699 ± 0.033
18,ARATPLWDLMPP,0.615 ± 0.094
19,ARCSPVPWGGGE,0.647 ± 0.033
20,ARGSRNHRGAGA,0.738 ± 0.067
21,ARIVEQTLCTKS,0.679 ± 0.057
